The record followed here is publication PMC3280358.

The target in one assay is Nbs1 1-382 (UniProt O60934). The assay is described as follows: ITC.
In a further assay the target is Nbs1 (UniProt O60934). In words: far-western with FLAG-Nbs1. Conditions: reference: nonphosphorylated NTD; sites T13.

As to “Rad51 NTD peptide (from UniProt Q06609) pT13 peptide”, the KD result in the assay with Nbs1 1-382 (reference: nonphosphorylated peptide, sites T13) is reported as “gained; reference no detectable binding”.

In the case of “Rad51 NTD peptide (from UniProt Q06609) pT13/pS14 peptide”, the KD entry is recorded as “gained; reference no detectable binding” with Nbs1 1-382 (reference: pS14 peptide, sites T13) and “weaker; reference around 20” in the assay with Nbs1 1-382 (reference: pT13 peptide, sites S14).

On to “Rad51 NTD, 1-86 (from UniProt Q06609) CK2-phosphorylated NTD”, for which the “binding against the reference” value with Nbs1 is given as “gained”.
